The values that follow come from patent US20100172925A1, “HLA-A2-RESTRICTED T-CELL EPITOPES OF THE RESPIRATORY SYNCYTIAL VIRUS FUSION PROTEIN AS PEPTIDE-BASED VACCINES” (priority 2009, published 2010).

First the molecules themselves.
B1: RSV F peptide No. 1 (F5-13) (peptide)
peptide: TLLLWVLLL
modifications: not checked
B2: RSV F peptide No. 17 (F417-425) (peptide)
peptide: KIMTSKTDV
modifications: not checked
B3: RSV F peptide No. 24 (F561-569) (peptide)
peptide: LLSLIAVGL
modifications: not checked
B4: RSV F peptide No. 13 (F214-222) (peptide)
peptide: KVLDLKNYI
modifications: not checked
B5: RSV F peptide No. 14 (F273-281) (peptide)
peptide: YMLTNSELL
modifications: not checked
B6: RSV F peptide No. 3 (F33-41) (peptide)
peptide: AITTILAAV
modifications: not checked
B7: RSV F peptide No. 16 (F296-304) (peptide)
peptide: LMSNNVQIV
modifications: not checked
B8: RSV F peptide No. 25 (F563-571) (peptide)
peptide: SLIAVGLLL
modifications: not checked
B9: RSV F peptide No. 6 (F163-171) (peptide)
peptide: FLLGVGSAI
modifications: not checked
B10: RSV F peptide No. 8 (F193-201) (peptide)
peptide: ALLSTNKAV
modifications: not checked
B11: RSV F peptide No. 15 (F295-303) (peptide)
peptide: KLMSNNVQI
modifications: not checked
B12: RSV F peptide No. 9 (F194-202) (peptide)
peptide: LLSTNKAVV
modifications: not checked
B13: RSV F peptide No. 23 (F559-567) (peptide)
peptide: VILLSLIAV
modifications: not checked
B14: RSV F peptide No. 18 (F474-482) (peptide)
peptide: SVGNTLYYV
modifications: not checked

The first experiment concerns the target HLA-A*0201 molecule on human T2 cells (human).
Assay: not given
In turn, B1 gave an MFI above baseline (% higher than the baseline) of 10.

The target is the same in a further experiment. Briefly: T2-based binding assay, flow cytometry with FITC anti-HLA-A2. For orientation: In flow cytometry, cells or beads pass a laser one at a time.
For B2, the MFI ratio (ratio to the negative control) is 0.91.

A further experiment has the same target. The experiment can be described thus: T2 cell-stabilization assay, flow cytometry with FITC anti-HLA-A2, peptide 50 µg/mL.
As for B3, the MFI ratio (fold of the negative control) is 1.5.
As for B4, the MFI above baseline (% higher than the baseline) is 10.
B5: the MFI ratio (fold of the negative control) came to 1.5.
Same read-out and setting: for B6 the value was 1.5.
Same read-out and setting: for B7 the value was 1.5.
B8 came in with an MFI above baseline (% higher than the baseline) of 10.
For the molecule B9, the MFI above baseline (% higher than the baseline) stood at 10.
The same measure, in the same setting: for B10 the value was 10.
For B11, the MFI ratio (fold of the negative control) stood at 1.5.
For the molecule B12, the MFI ratio (fold of the negative control) came out at 1.5.
In the case of B13, the MFI ratio (fold of the negative control) is 1.5.
B14 had an MFI above baseline (% higher than the baseline) of 10.
